The record followed here is IntAct's records for PubMed 24464040.

For test [1], the target named is kap3_rat Prkar2b (UniProt P12369).
Test [2] shares this target. This is another data set of the same source.

Sequence of kap3_rat Prkar2b (P12369 whole entry): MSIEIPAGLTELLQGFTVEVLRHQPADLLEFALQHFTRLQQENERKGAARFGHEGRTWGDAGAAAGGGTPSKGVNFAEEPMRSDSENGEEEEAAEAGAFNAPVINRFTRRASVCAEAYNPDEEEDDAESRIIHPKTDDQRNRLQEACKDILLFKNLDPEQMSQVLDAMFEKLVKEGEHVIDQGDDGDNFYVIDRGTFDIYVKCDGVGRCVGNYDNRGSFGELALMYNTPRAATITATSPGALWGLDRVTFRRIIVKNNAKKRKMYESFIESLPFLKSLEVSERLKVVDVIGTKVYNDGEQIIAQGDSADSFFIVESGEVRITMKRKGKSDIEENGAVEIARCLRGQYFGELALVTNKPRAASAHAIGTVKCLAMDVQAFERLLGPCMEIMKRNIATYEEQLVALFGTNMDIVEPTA

In the case of “Leucine-rich repeat serine/threonine-protein kinase 2 (Homo sapiens), Q5S007 G2385R”, the “effect of a mutation on the interaction” value with kap3_rat Prkar2b [1] is given as “increasing interaction”.

“Leucine-rich repeat serine/threonine-protein kinase 2 (Homo sapiens), Q5S007 R1441C”: the “effect of a mutation on the interaction” value with kap3_rat Prkar2b [2] is given as “decreasing interaction”.
